# Publication PMC3807708
# Tests used:
# IFN-γ-Rx H222R (human) = IFN-γ-Rx H222R (human) (UniProt P15260); experiment: SPR; ProteOn XPR36; His-tagged receptor immobilised on Ni2+-activated HTG chip; IFN-γ-SC as analyte, 1.2 to 99 nM; PBST (PBS pH 7.4, 0.005% Tween20); 25°C; 1:1 Langmuir with drift model; doubly referenced
# IFN-γ-Rx K115Y (human) = IFN-γ-Rx K115Y (human) (UniProt P15260); experiment: as above
# [1] = biological target: IFN-γ-Rx N70G + S95R + H222R (human) (UniProt P15260); experiment: as above
# IFN-γ-Rx S71E (human) = IFN-γ-Rx S71E (human) (UniProt P15260); experiment: as above
# IFN-γ-Rx T166Y (human) = IFN-γ-Rx T166Y (human) (UniProt P15260); experiment: as above
# IFN-γ-Rx S95R (human) = IFN-γ-Rx S95R (human) (UniProt P15260); experiment: as above
# IFN-γ-Rx N96W (human) = IFN-γ-Rx N96W (human) (UniProt P15260); experiment: as above
# [2] = biological target: IFN-γ-Rx N70G + H222R (human) (UniProt P15260); experiment: as above
# [3] = biological target: IFN-γ-Rx N96W + H222R (human) (UniProt P15260); experiment: as above
# [4] = biological target: extracellular domain of human interferon-γ receptor 1 (IFN-γ-Rx), wild type (human) (UniProt P15260); experiment: as above
# IFN-γ-Rx T166M (human) = IFN-γ-Rx T166M (human) (UniProt P15260); experiment: as above
# [5] = biological target: IFN-γ-Rx N70G + S95R (human) (UniProt P15260); experiment: as above
# [6] = biological target: extracellular domain of human interferon-γ receptor 1 (IFN-γ-Rx), mutant N96W (human) (UniProt P15260); experiment: SPR; His-tagged receptor immobilised on Ni2+-coated HTG chip; IFN-γ-SC as analyte; PBST; 15 °C; preliminary data of temperature dependency
# [7] = biological target: extracellular domain of human interferon-γ receptor 1 (IFN-γ-Rx), mutant N70G (human) (UniProt P15260); experiment: as above
# [8] = biological target: extracellular domain of human interferon-γ receptor 1 (IFN-γ-Rx), wild type (human) (UniProt P15260); experiment: as above
# [9] = biological target: extracellular domain of human interferon-γ receptor 1 (IFN-γ-Rx), mutant H222R (human) (UniProt P15260); experiment: as above
substance,measurement,setting,value
single-chain form of human interferon-γ (IFN-γ-SC) (ligand),Kd,IFN-γ-Rx H222R (human),29.4 nM
same,koff,IFN-γ-Rx H222R (human),0.0349 s⁻¹
same,kon,IFN-γ-Rx H222R (human),1.19e+06 M⁻¹ s⁻¹
same,Kd,IFN-γ-Rx K115Y (human),39.9 nM
same,koff,IFN-γ-Rx K115Y (human),0.0391 s⁻¹
same,kon,IFN-γ-Rx K115Y (human),979000 M⁻¹ s⁻¹
same,Kd,[1],37 nM
same,koff,[1],0.0401 s⁻¹
same,kon,[1],1.09e+06 M⁻¹ s⁻¹
same,fold change of Kd against WT,IFN-γ-Rx S71E (human),2 fold
same,Kd,IFN-γ-Rx T166Y (human),83.1 nM
same,koff,IFN-γ-Rx T166Y (human),0.0782 s⁻¹
same,kon,IFN-γ-Rx T166Y (human),940000 M⁻¹ s⁻¹
same,Kd,IFN-γ-Rx S95R (human),69.8 nM
same,koff,IFN-γ-Rx S95R (human),0.0454 s⁻¹
same,kon,IFN-γ-Rx S95R (human),650000 M⁻¹ s⁻¹
same,Kd,IFN-γ-Rx N96W (human),6.34 nM
same,koff,IFN-γ-Rx N96W (human),0.00909 s⁻¹
same,kon,IFN-γ-Rx N96W (human),1.43e+06 M⁻¹ s⁻¹
same,Kd,[2],26.9 nM
same,koff,[2],0.0391 s⁻¹
same,kon,[2],1.46e+06 M⁻¹ s⁻¹
same,Kd,[3],4.16 nM
same,koff,[3],0.01 s⁻¹
same,kon,[3],2.4e+06 M⁻¹ s⁻¹
same,Kd,[4],30.8 nM
same,koff,[4],0.0378 s⁻¹
same,kon,[4],1.24e+06 M⁻¹ s⁻¹
same,Kd,IFN-γ-Rx T166M (human),68.5 nM
same,koff,IFN-γ-Rx T166M (human),0.0639 s⁻¹
same,kon,IFN-γ-Rx T166M (human),933000 M⁻¹ s⁻¹
same,Kd,[5],55.9 nM
same,koff,[5],0.0494 s⁻¹
same,kon,[5],889000 M⁻¹ s⁻¹
same,Kd,[6],5.55 nM
same,Kd,[7],14.7 nM
same,Kd,[8],16.8 nM
same,Kd,[9],16.4 nM
